# T1: LGP2 (UniProt Q96C10 1-678)
# T1 sequence: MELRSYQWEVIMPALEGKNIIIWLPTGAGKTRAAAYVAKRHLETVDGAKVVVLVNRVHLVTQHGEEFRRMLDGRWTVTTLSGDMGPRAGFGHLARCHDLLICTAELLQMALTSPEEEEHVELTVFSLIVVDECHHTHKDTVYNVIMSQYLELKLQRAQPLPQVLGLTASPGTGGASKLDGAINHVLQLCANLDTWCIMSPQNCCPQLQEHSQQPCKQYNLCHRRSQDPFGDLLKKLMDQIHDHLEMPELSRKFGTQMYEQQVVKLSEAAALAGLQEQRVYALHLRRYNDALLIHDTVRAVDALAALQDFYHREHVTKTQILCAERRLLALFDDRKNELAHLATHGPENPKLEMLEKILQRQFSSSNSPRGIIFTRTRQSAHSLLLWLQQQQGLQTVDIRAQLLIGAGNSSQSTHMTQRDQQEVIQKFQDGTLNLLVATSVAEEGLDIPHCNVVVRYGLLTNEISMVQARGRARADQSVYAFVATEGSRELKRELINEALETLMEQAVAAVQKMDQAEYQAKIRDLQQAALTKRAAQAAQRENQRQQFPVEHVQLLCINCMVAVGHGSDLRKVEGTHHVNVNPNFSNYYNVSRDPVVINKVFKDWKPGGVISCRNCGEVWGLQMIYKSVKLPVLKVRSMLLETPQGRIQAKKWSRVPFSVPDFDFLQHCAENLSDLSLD
# T2: LGP2 (human, UniProt Q96C10 1-678)
# T2 sequence (looked up): T1 sequence
# T3: TRIM14^CC-PSpry (human, UniProt Q14142 59-442)
# T3 sequence (looked up): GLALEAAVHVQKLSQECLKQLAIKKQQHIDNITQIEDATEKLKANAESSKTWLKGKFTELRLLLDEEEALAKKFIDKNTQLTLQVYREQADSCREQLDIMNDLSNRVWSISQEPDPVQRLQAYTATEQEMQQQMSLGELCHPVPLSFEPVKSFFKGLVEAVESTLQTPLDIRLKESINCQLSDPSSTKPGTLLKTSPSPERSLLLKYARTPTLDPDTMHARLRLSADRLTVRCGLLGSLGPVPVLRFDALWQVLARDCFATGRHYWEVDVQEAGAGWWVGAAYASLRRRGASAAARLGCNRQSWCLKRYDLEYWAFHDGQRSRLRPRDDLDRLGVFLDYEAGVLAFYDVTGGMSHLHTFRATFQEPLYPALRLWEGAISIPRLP
# T4: GST-MDA5ΔN (human, UniProt Q9BYX4 287-1025)
# T4 sequence (looked up): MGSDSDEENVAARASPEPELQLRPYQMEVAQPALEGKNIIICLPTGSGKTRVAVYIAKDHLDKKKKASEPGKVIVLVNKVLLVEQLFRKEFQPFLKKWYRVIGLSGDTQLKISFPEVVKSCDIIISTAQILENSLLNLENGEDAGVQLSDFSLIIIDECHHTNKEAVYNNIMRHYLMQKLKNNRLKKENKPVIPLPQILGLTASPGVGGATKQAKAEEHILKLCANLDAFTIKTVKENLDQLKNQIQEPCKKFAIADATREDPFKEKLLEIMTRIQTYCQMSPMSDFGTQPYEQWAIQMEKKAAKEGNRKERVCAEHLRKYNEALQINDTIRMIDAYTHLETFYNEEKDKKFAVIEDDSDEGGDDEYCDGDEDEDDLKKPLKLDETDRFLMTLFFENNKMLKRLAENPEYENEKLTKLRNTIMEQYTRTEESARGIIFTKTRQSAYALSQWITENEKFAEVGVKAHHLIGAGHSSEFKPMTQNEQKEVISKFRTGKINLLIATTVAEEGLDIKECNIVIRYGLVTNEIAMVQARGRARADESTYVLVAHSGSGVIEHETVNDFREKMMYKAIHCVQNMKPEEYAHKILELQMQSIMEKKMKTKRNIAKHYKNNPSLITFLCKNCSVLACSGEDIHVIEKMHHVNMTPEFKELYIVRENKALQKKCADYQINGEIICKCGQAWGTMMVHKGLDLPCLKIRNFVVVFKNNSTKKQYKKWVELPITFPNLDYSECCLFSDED
# T5: MDA5ΔN (human, UniProt Q9BYX4 287-1025)
# T5 sequence (looked up): T4 sequence (looked up)
# T6: MDA5ΔN, fluorescein-labelled (human, UniProt Q9BYX4 287-1025, fluorescein-conjugated peptide (LPETGG) joined to the N-terminus with sortase A)
# T6 sequence (looked up): T4 sequence (looked up)
# T7: full-length MDA5, fluorescein-labelled (human, UniProt Q9BYX4 1-1025, fluorescein-conjugated peptide (LPETGG) joined to the N-terminus with sortase A)
# T7 sequence (looked up): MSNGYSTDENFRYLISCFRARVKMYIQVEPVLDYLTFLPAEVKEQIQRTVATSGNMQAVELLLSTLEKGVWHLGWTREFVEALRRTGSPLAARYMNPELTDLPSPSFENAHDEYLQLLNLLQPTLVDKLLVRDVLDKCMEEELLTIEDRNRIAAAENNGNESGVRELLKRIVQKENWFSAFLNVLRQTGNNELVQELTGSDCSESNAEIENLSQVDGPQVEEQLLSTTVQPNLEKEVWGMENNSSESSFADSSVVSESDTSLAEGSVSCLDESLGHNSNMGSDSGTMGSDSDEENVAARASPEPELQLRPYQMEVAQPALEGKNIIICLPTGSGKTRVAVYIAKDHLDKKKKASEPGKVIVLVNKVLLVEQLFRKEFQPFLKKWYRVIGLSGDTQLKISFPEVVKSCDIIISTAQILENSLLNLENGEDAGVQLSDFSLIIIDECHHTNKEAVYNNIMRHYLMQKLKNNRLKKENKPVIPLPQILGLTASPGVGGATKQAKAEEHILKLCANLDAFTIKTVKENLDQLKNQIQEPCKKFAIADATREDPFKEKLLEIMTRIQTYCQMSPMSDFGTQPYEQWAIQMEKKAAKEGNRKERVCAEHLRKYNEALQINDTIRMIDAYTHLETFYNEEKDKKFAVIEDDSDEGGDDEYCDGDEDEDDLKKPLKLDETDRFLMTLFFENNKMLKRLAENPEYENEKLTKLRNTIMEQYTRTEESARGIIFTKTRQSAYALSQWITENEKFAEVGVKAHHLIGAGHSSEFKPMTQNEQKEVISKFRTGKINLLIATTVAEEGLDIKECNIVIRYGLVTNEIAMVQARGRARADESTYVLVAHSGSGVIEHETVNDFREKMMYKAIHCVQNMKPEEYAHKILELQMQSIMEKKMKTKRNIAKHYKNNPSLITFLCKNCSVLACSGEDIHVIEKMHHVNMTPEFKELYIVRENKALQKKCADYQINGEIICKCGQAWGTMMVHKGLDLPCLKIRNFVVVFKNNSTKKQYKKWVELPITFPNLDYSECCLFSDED
# B1: 15 bp dsRNA (dsRNA)
# RNA 1: AGGGCCCGGGAUGCU
# RNA 2: AGCAUCCCGGGCCCU
# B2: GST-TRIM14^PSpry (domain or fragment, human, UniProt Q14142 238-442, looked up)
# chain: QLSDPSSTKPGTLLKTSPSPERSLLLKYARTPTLDPDTMHARLRLSADRLTVRCGLLGSLGPVPVLRFDALWQVLARDCFATGRHYWEVDVQEAGAGWWVGAAYASLRRRGASAAARLGCNRQSWCLKRYDLEYWAFHDGQRSRLRPRDDLDRLGVFLDYEAGVLAFYDVTGGMSHLHTFRATFQEPLYPALRLWEGAISIPRLP
# B3: GST-LGP2^Hel2i2 (domain or fragment, human, UniProt Q96C10 211-487, looked up)
# chain: SQQPCKQYNLCHRRSQDPFGDLLKKLMDQIHDHLEMPELSRKFGTQMYEQQVVKLSEAAALAGLQEQRVYALHLRRYNDALLIHDTVRAVDALAALQDFYHREHVTKTQILCAERRLLALFDDRKNELAHLATHGPENPKLEMLEKILQRQFSSSNSPRGIIFTRTRQSAHSLLLWLQQQQGLQTVDIRAQLLIGAGNSSQSTHMTQRDQQEVIQKFQDGTLNLLVATSVAEEGLDIPHCNVVVRYGLLTNEISMVQARGRARADQSVYAFVATEGS
# B4: TRIM65 CC-PSpry, fluorescein-labelled (domain or fragment, human, UniProt Q6PJ69 125-517, looked up)
# chain: HERALLDAERLKREAQLRASLEVTQQQATQAEGQLLELRKQSSQIQNSACILASWVSGKFSSLLQALEIQHTTALRSIEVAKTQALAQARDEEQRLRVHLEAVARHGCRIRELLEQVDEQTFLQESQLLQPPGPLGPLTPLQWDEDQQLGDLKQLLSRLCGLLLEEGSHPGAPAKPVDLAPVEAPGPLAPVPSTVCPLRRKLWQNYRNLTFDPVSANRHFYLSRQDQQVKHCRQSRGPGGPGSFELWQVQCAQSFQAGHHYWEVRASDHSVTLGVSYPQLPRCRLGPHTDNIGRGPCSWGLCVQEDSLQAWHNGEAQRLPGVSGRLLGMDLDLASGCLTFYSLEPQTQPLYTFHALFNQPLTPVFWLLEGRTLTLCHQPGAVFPLGPQEEVLS
# modifications: fluorescein-conjugated peptide (LPETGG) joined to the N-terminus with sortase A
# B5: TRIM65 CC-PSpry (domain or fragment, human, UniProt Q6PJ69 125-517, looked up)
# chain: B4 chain
# B6: TRIM65 (natural protein, human, UniProt Q6PJ69 1-517, looked up)
# chain: MAAQLLEEKLTCAICLGLYQDPVTLPCGHNFCGACIRDWWDRCGKACPECREPFPDGAELRRNVALSGVLEVVRAGPARDPGPDPGPGPDPAARCPRHGRPLELFCRTEGRCVCSVCTVRECRLHERALLDAERLKREAQLRASLEVTQQQATQAEGQLLELRKQSSQIQNSACILASWVSGKFSSLLQALEIQHTTALRSIEVAKTQALAQARDEEQRLRVHLEAVARHGCRIRELLEQVDEQTFLQESQLLQPPGPLGPLTPLQWDEDQQLGDLKQLLSRLCGLLLEEGSHPGAPAKPVDLAPVEAPGPLAPVPSTVCPLRRKLWQNYRNLTFDPVSANRHFYLSRQDQQVKHCRQSRGPGGPGSFELWQVQCAQSFQAGHHYWEVRASDHSVTLGVSYPQLPRCRLGPHTDNIGRGPCSWGLCVQEDSLQAWHNGEAQRLPGVSGRLLGMDLDLASGCLTFYSLEPQTQPLYTFHALFNQPLTPVFWLLEGRTLTLCHQPGAVFPLGPQEEVLS
# How the values were obtained:
# [1] = target: T1, LGP2; assay: EMSA
# [2] = target: T2, LGP2; assay: native gel or EMSA
# [3] = target: T3, TRIM14^CC-PSpry; assay: pull-down
# [4] = target: T4, GST-MDA5ΔN; assay: native gel or EMSA
# [5] = target: the molecule itself; assay: SEC-MALS
# [6] = target: T5, MDA5ΔN; assay: native gel or EMSA
# [7] = target: T6, MDA5ΔN, fluorescein-labelled; assay: native gel or EMSA
# [8] = target: T7, full-length MDA5, fluorescein-labelled; assay: native gel or EMSA
binder,measurement,setting,value
B1,binding result,[1],binds
B2,binding result,[2],binds
B3,binding result,[3],binds
B4,binding result,[4],binds
B5,stoichiometry N,[5],2
same,Kd,[6],171 nM
B6,binding result,[7],binds
same,binding result,[8],binds
same,binding result,[6],binds
